Experimental data: patent US20240209084A1 (CYTOARM, published 2024)

Tests used:
[1] = target: T1, CD19 (human, UniProt P15391 20-556); test: flow cytometry on Raji cells (CD19+), FITC goat anti-human IgG Fab
T1 construct: whole, on cells; also called CD19^+ B cell lymphoma (Raji)
T1 sequence (looked up): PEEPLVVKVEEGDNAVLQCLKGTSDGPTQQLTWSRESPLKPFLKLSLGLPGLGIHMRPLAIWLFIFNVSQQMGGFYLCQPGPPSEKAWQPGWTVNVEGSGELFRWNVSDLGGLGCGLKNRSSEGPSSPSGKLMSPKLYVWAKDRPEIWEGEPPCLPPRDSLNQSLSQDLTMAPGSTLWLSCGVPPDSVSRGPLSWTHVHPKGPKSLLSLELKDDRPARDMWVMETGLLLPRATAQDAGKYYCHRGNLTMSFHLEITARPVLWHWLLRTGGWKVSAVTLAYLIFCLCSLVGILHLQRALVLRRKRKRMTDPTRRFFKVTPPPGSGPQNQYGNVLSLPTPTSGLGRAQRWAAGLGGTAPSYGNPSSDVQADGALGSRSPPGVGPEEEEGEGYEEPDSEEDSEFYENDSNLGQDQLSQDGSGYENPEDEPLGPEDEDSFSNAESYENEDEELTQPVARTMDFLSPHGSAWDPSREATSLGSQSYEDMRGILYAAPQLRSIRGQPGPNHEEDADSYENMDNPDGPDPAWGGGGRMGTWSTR

[2] = target: T2, EpCAM (human, UniProt P16422 24-314); test: flow cytometry on LNCaP cells (EpCAM+), FITC goat anti-human IgG Fab
T2 construct: whole, on cells; also called epithelial cell adhesion molecule; EpCAM^+ prostate cancer (LNCaP)
T2 sequence (looked up): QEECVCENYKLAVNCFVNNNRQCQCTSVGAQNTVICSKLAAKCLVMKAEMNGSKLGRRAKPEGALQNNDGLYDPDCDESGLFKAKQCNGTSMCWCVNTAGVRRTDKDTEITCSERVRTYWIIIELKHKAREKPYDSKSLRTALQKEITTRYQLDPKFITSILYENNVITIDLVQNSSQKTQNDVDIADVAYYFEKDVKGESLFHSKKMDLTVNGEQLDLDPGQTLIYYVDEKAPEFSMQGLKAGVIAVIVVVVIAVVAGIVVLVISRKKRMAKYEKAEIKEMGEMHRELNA

[3] = target: T3, PSMA (human, UniProt Q04609 1-750); test: flow cytometry on LNCaP cells (PSMA+), FITC goat anti-human IgG Fab
T3 construct: whole, on cells; also called prostate-specific membrane antigen; PSMA^+ Prostate cancer (LNCaP)

[4] = target: T1, CD19; test: flow cytometry titration on Raji cells (CD19+), FITC goat anti-human IgG Fab
[5] = target: T4, CD3 (human, UniProt P07766 23-207); test: flow cytometry titration on Jurkat cells (CD3+), FITC goat anti-human IgG Fab
T4 construct: whole, on cells; CD3 is a multi-chain complex; also called CD3 on CD3-positive T cells; CD3^+ T cells (Jurkat)
T4 sequence (P07766 23-207): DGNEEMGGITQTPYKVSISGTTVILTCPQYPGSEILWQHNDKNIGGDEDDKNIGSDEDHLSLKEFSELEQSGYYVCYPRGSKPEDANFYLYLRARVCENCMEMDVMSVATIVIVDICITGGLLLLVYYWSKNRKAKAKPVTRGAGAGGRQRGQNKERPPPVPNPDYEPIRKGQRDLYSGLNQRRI

T3 sequence (Q04609 whole entry): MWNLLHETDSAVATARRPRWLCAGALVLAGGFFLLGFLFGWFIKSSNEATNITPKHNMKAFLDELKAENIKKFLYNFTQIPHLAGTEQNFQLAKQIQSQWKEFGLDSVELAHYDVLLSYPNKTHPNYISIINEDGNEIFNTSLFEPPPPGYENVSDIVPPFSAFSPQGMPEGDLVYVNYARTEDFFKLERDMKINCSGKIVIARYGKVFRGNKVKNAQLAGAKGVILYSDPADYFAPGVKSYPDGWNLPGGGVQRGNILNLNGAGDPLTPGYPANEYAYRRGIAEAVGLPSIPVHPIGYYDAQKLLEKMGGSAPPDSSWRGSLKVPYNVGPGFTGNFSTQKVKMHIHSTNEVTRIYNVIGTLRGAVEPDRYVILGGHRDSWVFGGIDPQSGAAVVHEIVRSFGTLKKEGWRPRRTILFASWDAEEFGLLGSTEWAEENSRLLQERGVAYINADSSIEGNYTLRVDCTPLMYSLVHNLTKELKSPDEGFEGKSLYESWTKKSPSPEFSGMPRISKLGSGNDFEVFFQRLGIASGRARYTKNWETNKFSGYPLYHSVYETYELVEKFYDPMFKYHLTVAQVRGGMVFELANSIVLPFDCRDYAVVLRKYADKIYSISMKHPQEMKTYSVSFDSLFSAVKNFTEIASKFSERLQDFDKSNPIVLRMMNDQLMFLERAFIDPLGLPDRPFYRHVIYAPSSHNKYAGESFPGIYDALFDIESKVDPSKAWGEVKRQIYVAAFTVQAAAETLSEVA

B1: CTA03Fab/CTAT02scFv (bispecific antibody)
heavy: EVQLLESGGGLVQPGGSLRLSCAASGFTFSSFPMAWVRQAPGKGLEWVSTISTSGGRTYYRDSVKGRFTISRDNSKNTLYLQMNSLRAEDTAVYYCAKFRQYSGGFDYWGQGTLVTVSSASTKGPSVFPLAPSSKSTSGGTAALGCLVKDYFPEPVTVSWNSGALTSGVHTFPAVLQSSGLYSLSSVVTVPSSSLGTQTYICNVNHKPSNTKVDKKVEPKSCGGGSGGGEVKLQESGPGLVAPSQSLSVTCTVSGVSLPDYGVSWIRQPPRKGLEWLGVIWGSETTYYNSALKSRLTIIKDNSKSQVFLKMNSLQTDDTAIYYCAKHYYYGGSYAMDYWGQGTSVTVSSGGGGSGGGGSGGGGSDIQMTQTTSSLSASLGDRVTISCRASQDISKYLNWYQQKPDGTVKLLIYHTSRLHSGVPSRFSGSGSGTDYSLTISNLEQEDIATYFCQQGNTLPYTFGGGTKLEIT
light: DIQLTQPNSVSTSLGSTVKLSCTLSSGNIENNYVHWYQLYEGRSPTTMIYDDDKRPDGVPDRFSGSIDRSSNSAFLTIHNVAIEDEAIYFCHSYVSSFNVFGGGTKLTVLRQPKAAPSVTLFPPSSEELQANKATLVCLISDFYPGAVTVAWKADSSPVKAGVETTTPSKQSNNKYAASSYLSLTPEQWKSHRSYSCQVTHEGSTVEKTVAPTECS
notes: also called anti-CD3Fab/anti-CD19scFv; parent CTA03Fab/CTAT02scFv BsAb
B1: binds [1].

B2: CTA03Fab/CTAT07scFv (bispecific antibody)
heavy: EVQLLESGGGLVQPGGSLRLSCAASGFTFSSFPMAWVRQAPGKGLEWVSTISTSGGRTYYRDSVKGRFTISRDNSKNTLYLQMNSLRAEDTAVYYCAKFRQYSGGFDYWGQGTLVTVSSASTKGPSVFPLAPSSKSTSGGTAALGCLVKDYFPEPVTVSWNSGALTSGVHTFPAVLQSSGLYSLSSVVTVPSSSLGTQTYICNVNHKPSNTKVDKKVEPKSCGGGSGGGEVQLVQSGPGLVQPGGSVRISCAASGYTFTNYGMNWVKQAPGKGLEWMGWINTYTGESTYADSFKGRFTFSLDTSASAAYLQINSLRAEDTAVYYCARFAIKGDYWGQGTLLTVSSGGGGSGGGGSGGGGSDIQMTQSPSSLSASVGDRVTITCRSTKSLLHSNGITYLYWYQQKPGKAPKLLIYQMSNLASGVPSRFSSSGSGTDFTLTISSLQPEDFATYYCAQNLEIPRTFGQGTKVELK
light: DIQLTQPNSVSTSLGSTVKLSCTLSSGNIENNYVHWYQLYEGRSPTTMIYDDDKRPDGVPDRFSGSIDRSSNSAFLTIHNVAIEDEAIYFCHSYVSSFNVFGGGTKLTVLRQPKAAPSVTLFPPSSEELQANKATLVCLISDFYPGAVTVAWKADSSPVKAGVETTTPSKQSNNKYAASSYLSLTPEQWKSHRSYSCQVTHEGSTVEKTVAPTECS
notes: also called antiCD3Fab/anti-EpCAMscFv
B2: binds [2].

B3: CTA03Fab/CTAT05scFv (bispecific antibody)
heavy: EVQLLESGGGLVQPGGSLRLSCAASGFTFSSFPMAWVRQAPGKGLEWVSTISTSGGRTYYRDSVKGRFTISRDNSKNTLYLQMNSLRAEDTAVYYCAKFRQYSGGFDYWGQGTLVTVSSASTKGPSVFPLAPSSKSTSGGTAALGCLVKDYFPEPVTVSWNSGALTSGVHTFPAVLQSSGLYSLSSVVTVPSSSLGTQTYICNVNHKPSNTKVDKKVEPKSCGGGSGGGEVQLVQSGAEVKKPGASVKISCKTSGYTFTEYTIHWVKQASGKGLEWIGNINPNNGGTTYNQKFEDRATLTVDKSTSTAYMELSSLRSEDTAVYYCAAGWNFDYWGQGTTVTVSSGGGGSGGGGSGGGGSDIVMTQSPSSLSASVGDRVTITCKASQDVGTAVDWYQQKPGKAPKLLIYWASTRHTGVPDRFTGSGSGTDFTLTISSLQPEDFADYFCQQYNSYPLTFGGGTKLEIK
light: DIQLTQPNSVSTSLGSTVKLSCTLSSGNIENNYVHWYQLYEGRSPTTMIYDDDKRPDGVPDRFSGSIDRSSNSAFLTIHNVAIEDEAIYFCHSYVSSFNVFGGGTKLTVLRQPKAAPSVTLFPPSSEELQANKATLVCLISDFYPGAVTVAWKADSSPVKAGVETTTPSKQSNNKYAASSYLSLTPEQWKSHRSYSCQVTHEGSTVEKTVAPTECS
notes: also called antiCD3Fab/anti-PSMAscFv
B3: binds [3].

B4: CTA03-02Fab/CTAT02-02scFv (bispecific antibody)
heavy: EVQLLESGGGLVQPGGSLRLSCAASGFTFSSFPMAWVRQAPGKGLEWVSTISTSGGRTYYRDSVKGRFTISRDNSKNTLYLQMNSLRAEDTAVYYCAKFRQYSGGFDYWGQGTLVTVSSASTKGPSVFPLAPSSKSTSGGTAALGCLVKDYFPEPVTVSWNSGALTSGVHTFPAVLQSSGLYSLSSVVTVPSSSLGTQTYICNVNHKPSNTKVDKKVEPKSCGGGSGGGEVKLQESGPGLVAPSQSLSVTCTVSGVSLPDYGVSWIRQPPRKGLEWLGVIWGSETTYYNSALKSRLTIIKDNSKSQVFLKMNSLQTDDTAIYYCAKHYYYGGSYAMDYWGQGTSVTVSSGGGGSGGGGSGGGGSDIQMTQTTSSLSASLGDRVTISCRASQDISKYLNWYQQKPEGTVKLLIYHTSRLHSGVPSRFSGSGSGTDYSLTISNLEQEDIATYFCQQGNTLPYTFGGGTKLEIT
light: DIQLTQPNSVSTSLGSTVKLSCTLSSGNIENNYVHWYQLYEGRSPTTMIYDDDKRPEGVPDRFSGSIDRSSNSAFLTIHNVAIEDEAIYFCHSYVSSFNVFGGGTKLTVLRQPKAAPSVTLFPPSSEELQANKATLVCLISDFYPGAVTVAWKADSSPVKAGVETTTPSKQSNNKYAASSYLSLTPEQWKSHRSYSCQVTHEGSTVEKTVAPTECS
notes: also called CTA03Fab(VLD57E)/CTAT02scFv(VLD41E)
B4 was tested, and the binding result [4] was “binds” and the “EC50 (read off the curve)” value [5] was ~0.2 µg/mL.

B5: CTA03-02Fab/CTAT02-01scFv (bispecific antibody)
heavy: EVQLLESGGGLVQPGGSLRLSCAASGFTFSSFPMAWVRQAPGKGLEWVSTISTSGGRTYYRDSVKGRFTISRDNSKNTLYLQMNSLRAEDTAVYYCAKFRQYSGGFDYWGQGTLVTVSSASTKGPSVFPLAPSSKSTSGGTAALGCLVKDYFPEPVTVSWNSGALTSGVHTFPAVLQSSGLYSLSSVVTVPSSSLGTQTYICNVNHKPSNTKVDKKVEPKSCGGGSGGGEVKLQESGPGLVAPSQSLSVTCTVSGVSLPDYGVSWIRQPPRKGLEWLGVIWGSETTYYNSALKSRLTIIKDNSKSQVFLKMNSLQTDDTAIYYCAKHYYYGGSYAMDYWGQGTSVTVSSGGGGSGGGGSGGGGSDIQMTQTTSSLSASLGDRVTISCRASQDISKYLNWYQQKPDATVKLLIYHTSRLHSGVPSRFSGSGSGTDYSLTISNLEQEDIATYFCQQGNTLPYTFGGGTKLEIT
light: DIQLTQPNSVSTSLGSTVKLSCTLSSGNIENNYVHWYQLYEGRSPTTMIYDDDKRPEGVPDRFSGSIDRSSNSAFLTIHNVAIEDEAIYFCHSYVSSFNVFGGGTKLTVLRQPKAAPSVTLFPPSSEELQANKATLVCLISDFYPGAVTVAWKADSSPVKAGVETTTPSKQSNNKYAASSYLSLTPEQWKSHRSYSCQVTHEGSTVEKTVAPTECS
notes: also called CTA03Fab(VLD57E)/CTAT02scFv(VLG42A)
B5: binds [4].

B6: CTA03-01Fab/CTAT02-02scFv (bispecific antibody)
heavy: EVQLLESGGGLVQPGGSLRLSCAASGFTFSSFPMAWVRQAPGKGLEWVSTISTSGGRTYYRDSVKGRFTISRDNSKNTLYLQMNSLRAEDTAVYYCAKFRQYSGGFDYWGQGTLVTVSSASTKGPSVFPLAPSSKSTSGGTAALGCLVKDYFPEPVTVSWNSGALTSGVHTFPAVLQSSGLYSLSSVVTVPSSSLGTQTYICNVNHKPSNTKVDKKVEPKSCGGGSGGGEVKLQESGPGLVAPSQSLSVTCTVSGVSLPDYGVSWIRQPPRKGLEWLGVIWGSETTYYNSALKSRLTIIKDNSKSQVFLKMNSLQTDDTAIYYCAKHYYYGGSYAMDYWGQGTSVTVSSGGGGSGGGGSGGGGSDIQMTQTTSSLSASLGDRVTISCRASQDISKYLNWYQQKPEGTVKLLIYHTSRLHSGVPSRFSGSGSGTDYSLTISNLEQEDIATYFCQQGNTLPYTFGGGTKLEIT
light: DIQLTQPNSVSTSLGSTVKLSCTLSSGNIENNYVHWYQLYEGRSPTTMIYDDDKRPDAVPDRFSGSIDRSSNSAFLTIHNVAIEDEAIYFCHSYVSSFNVFGGGTKLTVLRQPKAAPSVTLFPPSSEELQANKATLVCLISDFYPGAVTVAWKADSSPVKAGVETTTPSKQSNNKYAASSYLSLTPEQWKSHRSYSCQVTHEGSTVEKTVAPTECS
notes: also called CTA03Fab(VLG58A)/CTAT02scFv(VLD41E)
In the case of B6, the “EC50 (read off the curve)” value [4] is reported as ~1 µg/mL.

B7: CTA03-01Fab/CTAT02-01scFv (bispecific antibody)
heavy: EVQLLESGGGLVQPGGSLRLSCAASGFTFSSFPMAWVRQAPGKGLEWVSTISTSGGRTYYRDSVKGRFTISRDNSKNTLYLQMNSLRAEDTAVYYCAKFRQYSGGFDYWGQGTLVTVSSASTKGPSVFPLAPSSKSTSGGTAALGCLVKDYFPEPVTVSWNSGALTSGVHTFPAVLQSSGLYSLSSVVTVPSSSLGTQTYICNVNHKPSNTKVDKKVEPKSCGGGSGGGEVKLQESGPGLVAPSQSLSVTCTVSGVSLPDYGVSWIRQPPRKGLEWLGVIWGSETTYYNSALKSRLTIIKDNSKSQVFLKMNSLQTDDTAIYYCAKHYYYGGSYAMDYWGQGTSVTVSSGGGGSGGGGSGGGGSDIQMTQTTSSLSASLGDRVTISCRASQDISKYLNWYQQKPDATVKLLIYHTSRLHSGVPSRFSGSGSGTDYSLTISNLEQEDIATYFCQQGNTLPYTFGGGTKLEIT
light: DIQLTQPNSVSTSLGSTVKLSCTLSSGNIENNYVHWYQLYEGRSPTTMIYDDDKRPDAVPDRFSGSIDRSSNSAFLTIHNVAIEDEAIYFCHSYVSSFNVFGGGTKLTVLRQPKAAPSVTLFPPSSEELQANKATLVCLISDFYPGAVTVAWKADSSPVKAGVETTTPSKQSNNKYAASSYLSLTPEQWKSHRSYSCQVTHEGSTVEKTVAPTECS
notes: also called CTA03Fab(VLG58A)/CTAT02scFv(VLG42A)
B7: binds [4].
